Source: paper PMC9535766, “Structural insights into the assembly and activation of the IL‐27 signaling complex” (EMBO Reports, 2022)

B1: murine IL‐27, linker‐connected single‐chain variant (p28 + EBI3) (ligand)
chain: GSYTETALVALSQPRVQCHASRYPVAVDCSWTPLQAPNSTRSTSFIATYRLGVATQQQSQPCLQRSPQASRCTIPDVHLFSTVPYMLNVTAVHPGGASSSLLAFVAERIIKPDPPEGVRLRTAGQRLQVLWHPPASWPFPDIFSLKYRLRYRRRGASHFRQVGPIEATTFTLRNSKPHAKYCIQVSAQDLTDYGKPSDWSLPGQVESAPHKPRGGGGSGGGGSVESGENLYFQGFPTDPLSLQELRREFTVSLYLARKLLSEVQGYVHSFAESRLPGVNLDLLPLGYHLPNVSLTFQAWHHLSDSERLCFLATTLRPFPAMLGGLGTQGTWTSSEREQLWAMRLDLRDLHRHLRFQVLAAGFKCSKEEEDKEEEEEEEEEEKKLPLGALGGPNQVSSQVSWPQLLYTYQLLHSLELVLSRAVRDLLLLSLPRRPGSAWDS
B2: biotinylated mouse IL‐27Rα (amino acids 28–224) (receptor, UniProt O70394 28-224, looked up)
chain: HGSPGPLQCYSVGPLGILNCSWEPLGDLETPPVLYHQSQKYHPNRVWEVKVPSKQSWVTIPREQFTMADKLLIWGTQKGRPLWSSVSVNLETQMKPDTPQIFSQVDISEEATLEATVQWAPPVWPPQKVLICQFRYKECQAETWTRLEPQLKTDGLTPVEMQNLEPGTCYQVSGRCQVENGYPWGEWSSPLSFQTPF
modifications: N‐terminal biotinylated in vitro using EZ‐Link Sulfo‐NHS‐SS‐Biotin at pH 6.5
notes: IL-27 receptor alpha, murine, amino acids 28–224; Same construct as m2, chemically biotinylated for capture on the streptavidin chip; also called biotinylated IL‐27Rα; source: Trichoplusia ni (High Five) cells, baculovirus, secreted; purified (Ni-NTA, SEC); biotinylated in vitro

Experiments:
[1] = biological target: T1, biotinylated mouse IL‐27Rα (amino acids 28–224) (mouse, UniProt O70394 28-224, N‐terminal biotinylated in vitro using EZ‐Link Sulfo‐NHS‐SS‐Biotin at pH 6.5); test: SPR
T1 chain: B2 chain

[2] = biological target: T2, C‐terminal biotinylated mouse GP130 with biotin acceptor peptide (mouse, UniProt Q00560 23-319, biotin on the biotin acceptor peptide (BirA ligase)); test: SPR
T2 chain: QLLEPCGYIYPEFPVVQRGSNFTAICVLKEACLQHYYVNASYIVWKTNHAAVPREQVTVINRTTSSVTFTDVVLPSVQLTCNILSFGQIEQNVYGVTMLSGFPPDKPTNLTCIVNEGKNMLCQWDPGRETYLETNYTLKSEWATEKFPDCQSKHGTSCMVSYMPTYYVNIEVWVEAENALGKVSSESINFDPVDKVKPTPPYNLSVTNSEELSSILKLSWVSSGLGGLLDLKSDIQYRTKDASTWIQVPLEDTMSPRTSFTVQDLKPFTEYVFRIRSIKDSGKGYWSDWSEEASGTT

[3] = biological target: B2; test: SPR; Biacore T100; biotinylated receptor immobilised on SA chip (~100 RU); IL‐27 flowed, 1:3 dilution series from 100 nM, 30 μl/min; 25°C; 10 mM HEPES, 150 mM NaCl, 0.05% TWEEN‐20, pH 7.2, 0.5% BSA; kinetic 1:1 fit; conditions: both partners purified
[4] = biological target: T3, C‐terminal biotinylated mouse GP130 with biotin acceptor peptide (mouse, UniProt Q00560 23-319, biotin on the biotin acceptor peptide (BirA ligase)); test: as above; conditions: both partners purified
T3 construct: GP130, murine, amino acids 23–319; also called biotinylated GP130; source: insect cells (pAcGP67‐A vector), purified; biotinylated with BirA ligase
T3 sequence (looked up): T2 chain

[5] = biological target: T4, mouse p28 (IL‐27p28), alone (mouse, UniProt Q8K3I6 29-234); test: SPR; Biacore T100; biotinylated receptor immobilised on SA chip (~100 RU); p28 flowed, 1:2 dilution series from 20 μM; 25°C; 10 mM HEPES, 150 mM NaCl, 0.05% TWEEN‐20, pH 7.2, 0.5% BSA; equilibrium analysis; conditions: both partners purified
T4 construct: IL-27 p28 subunit, mouse; source: recombinantly produced
T4 sequence (looked up): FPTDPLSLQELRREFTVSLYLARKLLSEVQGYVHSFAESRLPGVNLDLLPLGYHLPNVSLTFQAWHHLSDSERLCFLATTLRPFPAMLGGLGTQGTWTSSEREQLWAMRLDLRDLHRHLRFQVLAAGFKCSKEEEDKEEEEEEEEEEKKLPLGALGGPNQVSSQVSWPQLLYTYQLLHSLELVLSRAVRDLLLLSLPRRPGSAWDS

| Binder | koff [1] [s⁻¹] | koff [2] [s⁻¹] | Kd [3] [nM] | Kd [4] [nM] | Kd [5] [nM] |
| --- | --- | --- | --- | --- | --- |
| B1 | 0.001 | 0.02 | 0.28 | 2.1 | – |
| B2 | – | – | – | – | 1700 |
